The target of test [1] is T1, recombinant histidine-tagged cynomolgus monkey E-selectin (Sino Biologicals; 190169-C08H) (cynomolgus monkey, UniProt A0A2K5U7H9 22-554).
T1 construct: also called recombinant cynomolgus monkey E-selectin
T1 sequence: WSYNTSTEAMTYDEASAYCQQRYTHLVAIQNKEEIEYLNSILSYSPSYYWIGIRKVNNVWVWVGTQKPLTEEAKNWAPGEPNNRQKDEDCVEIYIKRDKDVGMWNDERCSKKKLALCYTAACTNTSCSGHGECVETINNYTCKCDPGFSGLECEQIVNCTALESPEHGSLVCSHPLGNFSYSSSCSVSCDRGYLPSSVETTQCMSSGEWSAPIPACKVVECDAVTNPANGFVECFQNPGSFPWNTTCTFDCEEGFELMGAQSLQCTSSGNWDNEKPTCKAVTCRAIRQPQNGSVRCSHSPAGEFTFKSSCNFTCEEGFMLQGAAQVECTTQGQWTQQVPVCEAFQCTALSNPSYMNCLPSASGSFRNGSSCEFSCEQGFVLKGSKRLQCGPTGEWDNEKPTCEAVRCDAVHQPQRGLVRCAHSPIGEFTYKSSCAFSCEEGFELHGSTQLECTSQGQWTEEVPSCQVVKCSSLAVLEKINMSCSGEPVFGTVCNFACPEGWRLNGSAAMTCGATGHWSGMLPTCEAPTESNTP
As to the kind of experiment: direct binding ELISA, further assay. The method, then: Recombinant histidine tagged human P-, E- or L-selectin (Sino Biologicals), mouse E-selectin (Sino Biologicals), rat E-selectin (Sino Biologicals) and Cynomolgus monkey E-selectin (Sino Biologicals) stock solutions were prepared to a final concentration of 1 μg/mL in phosphate buffered saline without calcium and magnesium. Controls included an L-selectin directed antibody (BioLegend; 304811) or P-selectin directed antibody or a negative control IgG. One hundred μL per well of the diluted recombinant selectin proteins were added into a Ni-NTA HisSorb 96 well plate (Qiagen; 35061). Plates were incubated on an orbital shaker at room temperature for 2 hours. Following the incubation, the plates were washed 3 times with 200 μL of wash buffer (50 mM TRIS [trisaminomethane]; 150 mM sodium chloride; 0.05% polysorbate 20, pH 7.4). […] Anti L-selectin and anti-rat-E-selectin antibodies were detected using 1 to 25000 dilution of Peroxidase-conjugated AffiniPure Goat Anti-Mouse IgG (H+L); (Jackson ImnnunoResearch Lab).
Plates were washed and 100 μL per well of 1-Step Ultra TMB substrate (Thermo Scientific) was added and incubated for 5 minutes at room temperature. Reactions were stopped with 100 μL of 2 M sulfuric acid and absorbance read at 450 nm (Spectramax M5e).

For test [2], the target named is T2, human E-selectin, cell-surface expressed (human, UniProt P16581 22-610).
T2 sequence: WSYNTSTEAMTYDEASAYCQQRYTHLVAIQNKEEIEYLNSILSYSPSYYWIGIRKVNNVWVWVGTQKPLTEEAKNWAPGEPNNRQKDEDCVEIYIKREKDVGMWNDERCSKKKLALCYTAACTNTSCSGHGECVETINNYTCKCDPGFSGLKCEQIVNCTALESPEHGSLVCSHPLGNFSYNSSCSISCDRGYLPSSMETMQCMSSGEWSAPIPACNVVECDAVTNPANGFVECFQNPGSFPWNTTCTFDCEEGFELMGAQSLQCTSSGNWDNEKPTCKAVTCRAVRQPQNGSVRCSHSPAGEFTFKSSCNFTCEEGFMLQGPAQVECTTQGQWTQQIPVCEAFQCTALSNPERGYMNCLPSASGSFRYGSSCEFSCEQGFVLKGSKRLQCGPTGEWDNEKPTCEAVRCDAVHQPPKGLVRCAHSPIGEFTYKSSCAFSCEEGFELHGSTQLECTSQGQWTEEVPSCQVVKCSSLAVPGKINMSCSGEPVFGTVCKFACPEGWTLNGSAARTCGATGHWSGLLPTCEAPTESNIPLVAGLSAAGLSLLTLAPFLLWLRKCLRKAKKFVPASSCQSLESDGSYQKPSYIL
As to the kind of experiment: cell-based or functional assay.

Test [3] addresses T3, cynomolgus monkey E-selectin, cell-surface expressed (cynomolgus monkey, UniProt P16581 22-610 (human entry)).
T3 chain: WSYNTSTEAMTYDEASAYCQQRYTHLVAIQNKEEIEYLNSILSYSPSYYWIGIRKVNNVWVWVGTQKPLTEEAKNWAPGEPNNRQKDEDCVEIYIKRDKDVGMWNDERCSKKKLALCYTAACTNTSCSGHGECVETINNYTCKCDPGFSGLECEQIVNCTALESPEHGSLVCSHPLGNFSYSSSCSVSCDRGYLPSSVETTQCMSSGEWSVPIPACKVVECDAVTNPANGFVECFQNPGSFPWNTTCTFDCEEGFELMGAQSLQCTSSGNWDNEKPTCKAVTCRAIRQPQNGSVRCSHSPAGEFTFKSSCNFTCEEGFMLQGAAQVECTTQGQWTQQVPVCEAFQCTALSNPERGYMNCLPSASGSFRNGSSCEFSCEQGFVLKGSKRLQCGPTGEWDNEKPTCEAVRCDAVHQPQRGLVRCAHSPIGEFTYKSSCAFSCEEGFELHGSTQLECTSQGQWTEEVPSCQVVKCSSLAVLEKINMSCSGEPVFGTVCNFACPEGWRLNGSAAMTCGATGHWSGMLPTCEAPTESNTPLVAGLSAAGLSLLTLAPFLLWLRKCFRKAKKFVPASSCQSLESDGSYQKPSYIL
Kind of test: cell-based or functional assay.

A word on the EC50: it is the concentration giving half of the maximal effect.

B1: optimized anti-E-selectin antibody 1444 (antibody, human IgG1, kappa, V domains shown)
VH: EVQLVESGGGLVQPGGSLRLSCAASGYAIRSAYMHWVRQAPGKGLEWVARIDPANGNTIYVDSVTGRFTISADNAKNSAYLQMNSLRAEDTAVYYCAMDLYSTSEYWGQGTLVTVSS
VL: DIQMTQSPSSLSASVGDRVTITCKTSQNIERYLNWYQQKPGKAPKLLIYAASSLQSGVPSRFSGSGSGTDFTLTISSLQPEDFATYFCLQDNAWPLTFGQGTKVEIKR
notes: effector-null human IgG1, kappa
For B1, in test [1], the EC50 lay in the range of 0.071 to 0.075 nM. Moreover, the “HL-60 adhesion under physiological flow to human CHO-E-selectin cells, IC50” value in test [2] was determined as 4.41 nM. Further, in test [3], the “HL-60 adhesion under physiological flow to cells expressing cynomolgus monkey E-selectin, IC50” value turned out to be 4.34 nM.

These data come from patent US20240076386A1 (Pfizer, published 2024).
